T1: human FcγRIIb on cells (HEK293T cells transfected with human FcγRIIb cDNA; primary human B cells) (human, UniProt P31994 43-310)
T1 construct: whole, on cells; also called CD32b
T1 sequence (looked up): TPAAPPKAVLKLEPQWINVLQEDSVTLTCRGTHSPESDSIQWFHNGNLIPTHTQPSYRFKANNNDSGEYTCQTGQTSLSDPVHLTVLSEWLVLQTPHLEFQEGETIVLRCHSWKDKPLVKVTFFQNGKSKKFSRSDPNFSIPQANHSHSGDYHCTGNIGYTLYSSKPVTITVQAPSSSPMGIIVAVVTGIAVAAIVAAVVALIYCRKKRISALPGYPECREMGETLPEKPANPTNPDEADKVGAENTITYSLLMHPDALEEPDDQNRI

T2: human FcγRIIb receptor protein (R&D Systems) (human, UniProt P31994 46-217, limits assumed)
T2 construct: Bought
T2 sequence (looked up): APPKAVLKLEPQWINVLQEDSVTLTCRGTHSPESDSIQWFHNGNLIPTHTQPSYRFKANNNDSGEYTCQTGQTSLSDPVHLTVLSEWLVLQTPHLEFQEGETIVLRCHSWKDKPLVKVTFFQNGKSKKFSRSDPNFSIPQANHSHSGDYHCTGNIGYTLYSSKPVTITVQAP


Key:
[1] = target: T1, human FcγRIIb on cells (HEK293T cells …); assay: flow cytometry on HEK293T cells transfected with human FcγRIIb, PE anti-human Fab detection
[2] = target: T2, human FcγRIIb receptor protein (R&D …); assay: Biacore SPR

Row | EC50 fold relative to WT IgG1 [1] [fold] | Kd [2] [nM] | fold relative to native IgG1 [2] [fold] | Binder
1 | ~320 | – | – | anti-CD19 HuAM4G7 IgG1 S267E/L328F (antibody) chain 1: not shown chain 2: DIVMTQSPATLSLSPGERATLSCRSSKSLQNVNGNTYLYWFQQKPGQSPQLLIYRMSNLNSGVPDRFSGSGSGTEFTLTISSLEPEDFAVYYCMQHLEYPITFGAGTKLEIKRTVAAPSVFIFPPSDEQLKSGTASVVCLLNNFYPREAKVQWKVDNALQSGNSQESVTEQDSKDSTYSLSSTLTLSKADYEKHKVYACEVTHQGLSSPVTKSFNRGEC
2 | – | 408 | 3.6 | anti-CD19 HuAM4G7 IgG1 S267A (antibody) chain 1: not shown chain 2: DIVMTQSPATLSLSPGERATLSCRSSKSLQNVNGNTYLYWFQQKPGQSPQLLIYRMSNLNSGVPDRFSGSGSGTEFTLTISSLEPEDFAVYYCMQHLEYPITFGAGTKLEIKRTVAAPSVFIFPPSDEQLKSGTASVVCLLNNFYPREAKVQWKVDNALQSGNSQESVTEQDSKDSTYSLSSTLTLSKADYEKHKVYACEVTHQGLSSPVTKSFNRGEC
3 | – | 71.9 | 20.4 | anti-CD19 HuAM4G7 IgG1 S267E (antibody) chain 1: not shown chain 2: DIVMTQSPATLSLSPGERATLSCRSSKSLQNVNGNTYLYWFQQKPGQSPQLLIYRMSNLNSGVPDRFSGSGSGTEFTLTISSLEPEDFAVYYCMQHLEYPITFGAGTKLEIKRTVAAPSVFIFPPSDEQLKSGTASVVCLLNNFYPREAKVQWKVDNALQSGNSQESVTEQDSKDSTYSLSSTLTLSKADYEKHKVYACEVTHQGLSSPVTKSFNRGEC

Reference: patent US20090042291A1 (published 2009)
